# Read-outs that look alike come from different tables or passages of the source.
# Columns and labels:
# SAMHD1 wt [1] = biological target: T1, SAMHD1 wt (human, UniProt Q9Y3Z3 1-626); test: fluorescence anisotropy
# SAMHD1 ΔSAM (Δ112) = SAMHD1 ΔSAM (Δ112) (human, UniProt Q9Y3Z3 113-626, del1-112); test: fluorescence anisotropy
# SAMHD1 T592E = SAMHD1 T592E (human, UniProt Q9Y3Z3 1-626, T592E); test: fluorescence anisotropy
# SAMHD1 R451E = SAMHD1 R451E (human, UniProt Q9Y3Z3 1-626, R451E); test: fluorescence anisotropy
# SAMHD1 Q548A = SAMHD1 Q548A (human, UniProt Q9Y3Z3 1-626, Q548A); test: fluorescence anisotropy
# SAMHD1 wt [2] = biological target: T1, SAMHD1 wt; test: competition
# SAMHD1 wt [3] = biological target: T1, SAMHD1 wt; test: competition; remark: listed apart in the source
# SAMHD1 wt [4] = biological target: T1, SAMHD1 wt; test: fluorescence anisotropy; remark: listed apart in the source
# T1 sequence (Q9Y3Z3 whole entry): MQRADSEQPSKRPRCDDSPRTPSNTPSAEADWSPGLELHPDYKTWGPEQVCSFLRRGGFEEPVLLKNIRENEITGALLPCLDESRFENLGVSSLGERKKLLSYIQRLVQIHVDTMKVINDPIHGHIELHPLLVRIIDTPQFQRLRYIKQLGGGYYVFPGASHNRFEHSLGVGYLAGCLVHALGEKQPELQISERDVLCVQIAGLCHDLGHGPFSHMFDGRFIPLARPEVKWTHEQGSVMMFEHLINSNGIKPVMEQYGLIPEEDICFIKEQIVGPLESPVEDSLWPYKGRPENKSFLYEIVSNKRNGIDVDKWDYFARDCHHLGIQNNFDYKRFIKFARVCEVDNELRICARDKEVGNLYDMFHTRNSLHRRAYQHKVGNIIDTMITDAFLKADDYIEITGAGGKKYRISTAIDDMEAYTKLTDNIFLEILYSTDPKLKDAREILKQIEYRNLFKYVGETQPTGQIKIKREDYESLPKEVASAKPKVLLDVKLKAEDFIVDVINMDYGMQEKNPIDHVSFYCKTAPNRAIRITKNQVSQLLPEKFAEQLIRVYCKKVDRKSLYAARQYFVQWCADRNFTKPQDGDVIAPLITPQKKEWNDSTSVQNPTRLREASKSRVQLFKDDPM
# SAMHD1 Q548A, sequence (Q9Y3Z3 whole entry Q548A): as the sequence (Q9Y3Z3 whole entry) above, with Q548A counted along it
# SAMHD1 T592E, sequence (Q9Y3Z3 whole entry T592E): as the sequence (Q9Y3Z3 whole entry) above, with T592E counted along it
# SAMHD1 ΔSAM (Δ112), sequence (Q9Y3Z3 113-626, stated change not applied): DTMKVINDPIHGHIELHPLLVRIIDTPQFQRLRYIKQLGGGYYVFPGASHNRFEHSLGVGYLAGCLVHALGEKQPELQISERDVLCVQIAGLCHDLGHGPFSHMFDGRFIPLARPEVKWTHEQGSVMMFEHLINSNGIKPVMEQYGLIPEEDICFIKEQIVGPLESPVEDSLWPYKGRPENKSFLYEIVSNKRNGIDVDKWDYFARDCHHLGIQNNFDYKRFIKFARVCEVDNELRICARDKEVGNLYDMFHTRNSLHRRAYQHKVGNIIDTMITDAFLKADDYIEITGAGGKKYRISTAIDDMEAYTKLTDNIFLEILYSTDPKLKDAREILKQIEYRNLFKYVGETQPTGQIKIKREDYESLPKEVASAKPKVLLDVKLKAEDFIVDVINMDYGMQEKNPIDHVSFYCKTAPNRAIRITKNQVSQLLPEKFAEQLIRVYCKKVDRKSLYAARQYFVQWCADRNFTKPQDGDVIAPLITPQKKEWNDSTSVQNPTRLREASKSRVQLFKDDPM
# SAMHD1 R451E, sequence (Q9Y3Z3 whole entry R451E): as the sequence (Q9Y3Z3 whole entry) above, with R451E counted along it
Binder,apparent K (half saturation) (SAMHD1 wt [1]) [nM],binding result (SAMHD1 T592E),binding result (SAMHD1 Q548A),further results
RNA:DNA40 (DNA:RNA) RNA: CACCAAUUCGUCUUAGGGUUAAUCUUGAAGCUAGAGUUAA DNA: TTAACTCTAGCTTCAAGATTAACCCTAAGACGAATTGGTG,2000 ± 400,–,–,–
CACCAAUUCGUCUUAGGGUUAAUCUUGAAGCUAGAGUUAA (ssRNA) [ssRNA40],–,binds,binds,binding result (SAMHD1 ΔSAM (Δ112)): binds; binding result (SAMHD1 R451E): binds
ssDNA90 (ssDNA) DNA: TGGAGAATCCCGGTGCCGAGGCCGCTCAATTGGTCGTAGACAGCTCTAGCACCGCTTGAAGGAGATATACATACATTAATTGCGTTGCGC,–,–,–,binding result (SAMHD1 wt [2]): binds
ssRNA90 (ssRNA) RNA: GGGGAAUUGUGAGCGGAUAACAAUUCCCCUCUAGAAAUAAUUUUGUUUAACUUUAAGAAGGAGAUAUACAUAUGCACCAUCAUCAUCAUC,–,–,–,binding result (SAMHD1 wt [3]): binds
ssDNA57 (ssDNA) DNA: TGGAGAATCCCGGTGCCGAGGCCGCTCAATTGGTCGTAGACAGCTCTAGCACCGCTT,450 ± 130,binds,binds,–
dsDNA57 (dsDNA) DNA 1: TGGAGAATCCCGGTGCCGAGGCCGCTCAATTGGTCGTAGACAGCTCTAGCACCGCTT DNA 2: AAGCGGTGCTAGAGCTGTCTACGACCAATTGAGCGGCCTCGGCACCGGGATTCTCCA,–,–,–,apparent K (half saturation) (SAMHD1 wt [4]): 18 ± 2 µM

# Reference: article PMC4513882
